Experimental data reported in the Human Domainome abundance scans (Beltran et al. 2025).

B1: GA-binding protein alpha chain, residues 172 to 250; numbered along this chain, Q06546 (parent)
chain: GYRKEQERLGIPYDPIQWSTDQVLHWVVWVMKEFSMTDIDLTTLNISGRELCSLNQEDFFQRVPRGEILWSHLELLRKY

Variants of: B1
Assay: abundance fitness (aPCA) (normalised: wild type 0, dead -1); higher = more abundant; growth selection in yeast, the domain comes from the species named
Conditions: Homo sapiens

Abundance fitness: each site, then its substitutions
L24: F -0.119; G -0.109; H 0.029; I -0.091; K -0.038; M -0.011; N -0.075; P -1; S -0.104; T -0.056; Y -0.278
H25: A -0.25; C -0.266; D -0.209; F -0.194; G -0.207; I -0.138; L -0.167; M -0.303; N -0.048; P -0.942; Q -0.304; R -0.304; S -0.27; T -0.12; V -0.219; W -0.393; Y -0.002
W26: A -0.904; C -0.866; E -1; F -0.404; H -0.822; I -0.804; K -0.906; L -0.886; M -0.976; N -0.894; P -0.947; Q -0.875; R -0.855; S -1.13; T -1.03; Y -0.514
V27: C -0.073; D -0.75; E -0.913; F -0.256; G -0.037; H -0.758; I -0.059; K -0.478; L -0.194; M -0.106; N -0.818; P -0.668; Q -0.271; R -0.436; S -0.171; T -0.245; W -0.732; Y -0.197
V28: A -0.004; C 0.039; D 0.017; E -0.039; F -0.129; G -0.023; H -0.013; I -0.017; K 0.085; M 0.016; N -0.1; P -0.921; Q 0.027; R 0.043; S -0.035; W -0.043
W29: A -0.632; C -0.663; D -0.57; E -0.701; F -0.279; G -0.776; H -0.404; I -1.09; K -0.816; L -0.815; Q -0.724; R -0.9; S -0.439; T -0.452; V -0.939; Y -0.106
V30: C 0.012; D -0.763; E -0.08; G -0.051; H -0.134; I -0.099; L -0.12; M -0.042; P -0.822; Q -0.345; S -0.076; T 0.003; W -0.339; Y -0.492
M31: A -0.046; C 0.069; D -0.794; E -0.289; F -0.09; G -0.089; H -0.169; I -0.031; K -0.089; L -0.11; N -0.191; P -1.01; Q 0.059; R -0.155; T 0.018; V -0.036; Y -0.322
K32: A -0.141; C -0.188; E -0.024; F -0.41; I -0.582; L -0.443; M -0.261; N -0.024; P -0.734; Q -0.061; R -0.024; S -0.079; T -0.01; V -0.36; W -0.419; Y -0.172
E33: A -0.139; C -0.276; D 0.021; F -0.375; G -0.196; H -0.092; I -0.767; K -0.008; M -0.337; N -0.202; P -0.26; Q -0.123; R -0.031; S -0.1; T -0.084; V -0.277; W -0.566; Y -0.257
F34: A -0.031; C -0.068; E -0.056; G -0.117; H 0.077; K 0.015; L -0.145; M -0.175; N 0.081; P -0.605; Q -0.012; R -0.035; S -0.063; T -0.061; W -0.092; Y 0.015
S35: A -0.086; C -0.044; E -0.035; F -0.42; G 0.018; H 0.008; I -0.781; K -0.028; L -0.204; M -0.14; N -0.009; P -0.091; Q 0.014; R -0.045; T -0.013; V -0.165; W -0.335; Y -0.205
M36: A -0.025; C 0.081; D -0.019; E -0.031; F -0.09; G -0.182; H -0.193; I -0.05; K -0.062; L 0.043; N -0.189; P -0.196; Q -0.08; R -0.029; S -0.102; V -0.013; W -0.118; Y -0.053
T37: A -0.03; C -0.044; D -0.22; E 0.017; F -0.019; G -0.004; H -0.037; I -0.256; K 0.039; M -0.028; N -0.027; P 0.014; Q -0.009; R -0.033; S -0.07; V -0.1; W -0.115
D38: A -0.154; E 0.03; F -0.492; G -0.031; H -0.055; I -0.626; K -0.091; M -0.364; N -0.082; P -0.009; Q -0.099; R -0.168; S -0.063; T -0.08; V -0.364; W -0.149; Y -0.261
I39: A -0.192; C -0.042; D -0.288; E -0.118; F -0.011; G -0.185; H -0.06; K -0.244; M -0.021; N -0.07; P -0.17; Q -0.22; R -0.281; S -0.275; T -0.035; V 0.037; W -0.145; Y -0.317
D40: A -0.226; C -0.281; E -0.112; G -0.239; H -0.223; I -0.533; K -0.23; M -0.543; N -0.043; P -0.111; Q -0.268; R -0.292; S -0.124; T -0.263; V -0.44; W -0.989; Y -0.698
L41: A -0.049; C -0.056; D -0.386; E -0.153; F -0.094; G -0.134; H -0.063; I 0.006; M -0.008; N -0.258; P -0.028; Q -0.117; R -0.191; S -0.127; T -0.061; V -0.024; W -0.132; Y -0.025
T42: A -0.004; C -0.051; D -0.011; F -0.215; H -0.075; I -0.181; K -0.131; L -0.162; N -0.083; P -0.106; Q -0.032; R -0.014; S -0.011; V -0.122; Y -0.1
T43: A 0; C 0.013; D 0.034; F -0.299; H -0.149; I -0.202; K 0.102; M -0.043; N -0.037; P 0.013; Q -0.016; R -0.027; S 0.014; V -0.065; W -0.123; Y -0.005
L44: A -0.715; C -0.282; D -0.945; E -0.876; F -0.108
